From patent US5807698

Molecular target: human p33 CDK2 (human) (UniProt P24941)

Chain of human cyclin E (P24864 16-410 limits assumed): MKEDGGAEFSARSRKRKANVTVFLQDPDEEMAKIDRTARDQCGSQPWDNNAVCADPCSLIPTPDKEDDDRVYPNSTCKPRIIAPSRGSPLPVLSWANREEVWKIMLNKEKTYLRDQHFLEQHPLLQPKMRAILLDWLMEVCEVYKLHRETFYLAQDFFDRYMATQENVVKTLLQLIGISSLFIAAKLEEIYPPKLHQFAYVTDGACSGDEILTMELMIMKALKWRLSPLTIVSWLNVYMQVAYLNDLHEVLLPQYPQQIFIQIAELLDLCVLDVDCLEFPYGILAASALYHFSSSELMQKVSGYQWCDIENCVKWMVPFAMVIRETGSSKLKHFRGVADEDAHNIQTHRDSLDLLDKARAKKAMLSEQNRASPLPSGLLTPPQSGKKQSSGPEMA

human cyclin E
CDK2 histone H1 kinase activity in G1 cell extract: 22 fold
